# Results: article PMC4017264 (Molecular Cell, 2014)
# Where a chain is given by its changes, count along the chain named. Values joined by “and” are separate entries in the source; they are usually repeats but may differ in a detail not shown here. Equal values may be shown once. No end group written: not given here. *: point of attachment. FITC = O=C1OC2(c3ccc(O)cc3Oc3cc(O)ccc32)c2ccc(NC(=S)*)cc21; Ahx = NCCCCCC(=O)O
# T1: HOIP PUB domain N101R (UniProt Q96EP0 1-184, N101R)
# T1 construct: HOIP PUB domain with N101R
# T1 sequence (looked up): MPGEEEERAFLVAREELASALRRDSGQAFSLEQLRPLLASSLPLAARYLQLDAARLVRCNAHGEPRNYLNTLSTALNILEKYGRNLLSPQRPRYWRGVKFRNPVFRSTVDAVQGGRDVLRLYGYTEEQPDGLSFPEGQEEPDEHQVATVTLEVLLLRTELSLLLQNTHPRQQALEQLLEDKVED
# T2: HOIP PUB domain (aa 1–184) Y82F (UniProt Q96EP0 1-184, Y82F)
# T2 sequence (looked up): T1 sequence (looked up) with Y82F, R101N
# T3: HOIP PUB domain K99R (UniProt Q96EP0 1-184, K99R)
# T3 construct: HOIP PUB domain with K99R
# T3 sequence (looked up): T1 sequence (looked up) with K99R, R101N
# T4: PNGase PUB domain R55A (UniProt Q96IV0 11-109, Arg55 was mutated to Ala)
# T4 construct: PNGase PUB domain with Arg55 mutated to Ala; also called PNGase mutant; Arg55 mutated to Ala
# T4 sequence (looked up): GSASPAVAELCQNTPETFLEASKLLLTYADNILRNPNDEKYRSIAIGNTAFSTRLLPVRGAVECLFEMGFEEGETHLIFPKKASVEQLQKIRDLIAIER
# T5: HOIP PUB domain (aa 1–184) N85A (UniProt Q96EP0 1-184, N85A)
# T5 sequence (looked up): T1 sequence (looked up) with N85A, R101N
# T6: HOIP PUB domain (aa 1–184) V104A (UniProt Q96EP0 1-184, V104A)
# T6 sequence (looked up): T1 sequence (looked up) with R101N, V104A
# T7: HOIP extended PUB domain (aa 1–184) (UniProt Q96EP0 1-184)
# T7 construct: 15N- or 13C,15N-labelled for NMR; Construct details are in the Supplemental Experimental Procedures; also called HOIP PUB domain
# T7 sequence (looked up): T1 sequence (looked up) with R101N
# T8: HOIP PUB domain (aa 5–180) (UniProt Q96EP0 5-180)
# T8 construct: HOIP, residues 5-180, PUB domain; also called HOIP 5–180; slightly truncated HOIP PUB domain construct
# T8 sequence (looked up): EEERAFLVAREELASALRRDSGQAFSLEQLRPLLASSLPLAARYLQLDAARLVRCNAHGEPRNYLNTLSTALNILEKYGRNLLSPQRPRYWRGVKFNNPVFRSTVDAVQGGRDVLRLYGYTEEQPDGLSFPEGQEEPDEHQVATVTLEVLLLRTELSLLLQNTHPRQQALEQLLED
# T9: PNGase PUB domain (aa 11–109) (UniProt Q96IV0 11-109)
# T9 construct: PNGase (peptide:N-glycanase), PUB domain, residues 11-109
# T9 sequence (looked up): T4 sequence (looked up) with A45R
# T10: UBXD1 PUB domain (aa 150–264) (UniProt Q9BZV1 150-264)
# T10 construct: UBXD1, PUB domain, residues 150-264; also called minimal UBXD1 PUB domain
# T10 sequence (looked up): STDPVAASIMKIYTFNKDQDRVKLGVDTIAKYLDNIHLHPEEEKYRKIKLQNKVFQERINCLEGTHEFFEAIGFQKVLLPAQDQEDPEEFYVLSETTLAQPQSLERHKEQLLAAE
# B1: FITC-Ahx-labeled OTULIN PIM peptide (aa 49–67) (peptide, UniProt Q96BN8 49-67, looked up)
# peptide: {FITC-Ahx}-AEHEEDMYRAADEIEKEKE
# notes: OTULIN, residues 49-67, holds the EEDMYR motif (residues 52-57); also called OTULIN peptide; wild-type OTULIN PIM peptide
# B2: unlabeled p97 PIM peptide (peptide, UniProt P55072 797-806, looked up)
# peptide: TEDNDDDLYG
# notes: p97 (VCP) PIM peptide; also called p97 peptide
# B3: unlabeled OTULIN PIM peptide (aa 49–67) (peptide, UniProt Q96BN8 49-67, looked up)
# peptide: AEHEEDMYRAADEIEKEKE
# notes: OTULIN, residues 49-67; Called unlabeled for NMR; also called OTULIN 49–67
# B4: FITC-Ahx-labeled p97 PIM peptide (aa 797–806) (peptide, UniProt P55072 797-806, looked up)
# peptide: {FITC-Ahx}-TEDNDDDLYG
# notes: p97 (VCP), C-terminal residues 797-806; also called p97 peptide; fluorescent p97 PIM peptide
# What was measured:
# [1] = biological target: FITC-Ahx-labeled OTULIN PIM peptide (aa 49–67) (UniProt Q96BN8); experiment: fluorescence polarisation; serially diluted PUB domains and HOIP variants mixed with an equal volume of 100 nM FITC-Ahx-labeled peptide; one-site binding model; triplicate
# [2] = tested on: HOIP (Met1-linked polyUb); experiment: HOIP autoubiquitination, purification of endogenous Met1-polyUb conjugates (M1-SUB pulldown); format: cell-based; conditions: U2OS/NOD2 cells, ectopic OTULIN variants, basal, identical with L18-MDP or TNF, immunoblot
# Text: Antibodies and affinity resin
# The following antibodies and reagents were used according to the manufacturers’ instructions: anti-HA-agarose resin (A2095), anti-V5-agarose resin (A7345) and rabbit polyclonal anti-HOIP/RNF31 (SAB2102031, Sigma-Aldrich), rat monoclonal anti-HA (#11867423991, Roche Diagnostics, Burgess Hill, UK), mouse monoclonal anti-ubiquitin (IMG-5021, Imgenex, San Diego, CA), rabbit polyclonal anti-SHARPIN (#14626-1-AP, ProteinTech, Chicago, IL), rabbit polyclonal anti-RBCK1/HOIL-1 (NBP1-88301, Novus Biologicals, Littleton, CO), mouse monoclonal anti-V5 (MCA1360, AbD Serotec, Kidlington, UK), mouse monoclonal anti-$-actin (MAB1501, Chemicon, Millipore, Billerica, MA), rabbit polyclonal anti-HOIL-1, rabbit polyclonal anti-HOIP/RNF31
# (Sigma), mouse monoclonal anti-p97 (Thermo Scientific). The
# Fam105B/OTULIN antibody was previously described (Keusekotten et al., 2013). […]
# HEK293ET, RPE1 and U2OS cells were collected, washed with PBS and lysed on ice for 30 minutes in SEC cell extraction buffer (150 mM NaCl, 50 mM Tris-HCl pH 7.4, 1 mM MgCl2, 1 mM DTT, 0.3% NP40, protease and (Roche)). […] In total 3.1 mg protein extract was analyzed on a Superdex 200 10/300 GL column (GE Life Sciences). […]
# HOIP PUB domain N101R = biological target: T1, HOIP PUB domain N101R; experiment: fluorescence polarisation; serially diluted PUB domains and HOIP variants mixed with an equal volume of 100 nM FITC-Ahx-labeled peptide; one-site binding model; triplicate; conditions: both partners purified
# [3] = biological target: T2, HOIP PUB domain (aa 1–184) Y82F; experiment: as above; conditions: both partners purified
# HOIP PUB domain K99R = biological target: T3, HOIP PUB domain K99R; experiment: as above; conditions: both partners purified
# PNGase PUB domain R55A = biological target: T4, PNGase PUB domain R55A; experiment: as above; conditions: both partners purified
# [4] = biological target: T5, HOIP PUB domain (aa 1–184) N85A; experiment: as above; conditions: both partners purified
# [5] = biological target: T6, HOIP PUB domain (aa 1–184) V104A; experiment: as above; conditions: both partners purified
# [6] = biological target: HOIP PUB domain (aa 1–184) Y82F (UniProt Q96EP0 1-184, Y82F); experiment: FP
# Target sequence in this assay (Q96EP0 1-184 Y82F): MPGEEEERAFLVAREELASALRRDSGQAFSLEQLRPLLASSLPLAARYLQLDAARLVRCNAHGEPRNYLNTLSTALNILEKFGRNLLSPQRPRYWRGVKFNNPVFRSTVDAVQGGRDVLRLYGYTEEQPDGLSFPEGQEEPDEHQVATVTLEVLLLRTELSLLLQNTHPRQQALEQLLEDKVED
# [7] = biological target: HOIP PUB domain (aa 1–184) N85A (UniProt Q96EP0 1-184, N85A); experiment: FP
# [8] = biological target: T7, HOIP extended PUB domain (aa 1–184); experiment: fluorescence polarisation; competition assay: p97 PIM peptide competes with the OTULIN PIM for the HOIP PIM pocket; conditions: both partners purified
# [9] = biological target: T8, HOIP PUB domain (aa 5–180); experiment: crystal structure; HOIP 5–180 with OTULIN 49–67, 2.0 Å, space group P 6(1), two molecules in the asymmetric unit; conditions: both partners purified
# [10] = biological target: T7, HOIP extended PUB domain (aa 1–184); experiment: fluorescence polarisation; serially diluted PUB domains and HOIP variants mixed with an equal volume of 100 nM FITC-Ahx-labeled peptide; one-site binding model; triplicate; conditions: both partners purified
# [11] = biological target: T9, PNGase PUB domain (aa 11–109); experiment: as above; conditions: both partners purified
# [12] = biological target: T10, UBXD1 PUB domain (aa 150–264); experiment: as above; conditions: both partners purified
molecule,measurement,setting,value
HOIP extended PUB domain (aa 1–184) (from UniProt Q96EP0 1-184) (domain or fragment),Kd,[1],0.18 µM
inactive OTULIN with a mutation in the PIM (Y56A): catalytically inactive OTULIN (C129A) with PIM mutation Y56A,HOIP autoubiquitination with Met1-linked polyUb (in words),[2],did not lead to HOIP autoubiquitination
B1,Kd,HOIP PUB domain N101R,0.1 µM
same,binding result,[3],binds
same,binding result,HOIP PUB domain K99R,binds
same,Kd,PNGase PUB domain R55A,43 µM
same,binding result,[4],binds
same,binding result,[5],binds
same,Kd,[6],9.38 µM
same,Kd,[7],1.04 µM
B2,Ki,[8],37 µM
B3,binding result,[9],binds
B4,Kd,[10],7.6 µM and 6 µM
same,Kd,[11],3 µM
same,Kd,HOIP PUB domain N101R,0.9 µM
same,binding result,HOIP PUB domain K99R,binds
same,Kd,[12],12 µM
